Test: soluble on expression in E. coli; label from the status in PepcDB or PDB records

Sequence	soluble on expression in E. coli
MTFQASGTTGITTLTVTEECRVQVGNVTATLARSKLKDDTAIGVIGVTALGCNGLQAALQADPDNYDATNLYMTSRNHDKLNVKLKATDGSSWTYGNGVFYKTEGGNWGGHVGISVDGNQTDKPTGEYTLNLTGGYWTNDNKQTFQASGTTGITTLTLEHHHHHH	soluble
MAHHHHHHMTTERPCGERNGHTHSSSAADGTFDQPDTAVLLYGGLPPMPKPSVQRGEGSMEREFDQAAVSPSPVAAVAASSVVGGDTSPGSSPHIGVHEADDPTKNFDNSTEEEHMDLFISAMSPQNCVDRPQRRARGALMPPLPSPGEADAGAMMQSEMHTTPMTKTHTPDLRVTMYENQELRRELATVRASLRQALQTIETRELECVELHRLVDEMQAQLNGLKPEANLRPTQTDAQGNGEGSTRPEKSAFKLQATKDTTGPQIIGKYESKEEWRMTPSRELFAAEVKHDAHTEASTTTAIAAVKMNATDAPTTVEETISMGQLCEERDRLAKELAQTKIVVAEQETVLDRLGLRFPYPGALVAAARRTIPAFEPLRKSRKQKPGPLVVDRTTQMRGERAERRE	not soluble
GPGSMMSSATLSDVETLENIPRGAPIGGSGIVSGTASEGSSRGAERSTVANVSEDGERGRREEEEDRKPLIMDQSVIMDEEPYISPAKAKKISWKCGLCGYYVLAMDHNGNPLELTNSPSGEPLPMSCPRCMLLHHDWEPAVPFDDFNNHANIRSKQSNSYVISDQKSGKQAGFVPARTPAERDLKKTSADITRILQEVEDRWRNYAPRESPTSREQGPKGRLMAYYCDKCNRELLRMDQYGELVPMVSDKEGKPLPIVCPGCKEEHSEWVVRPFTVTR	soluble
MMKEFNPREIEKKWQKRWEEAGVFKAQEGKPNKFYVLEMFPYPSGRIHMGHVRNYTIGDAIARYLKMRGKNILHPMGWDAFGLPAENAAIKHGIHPAKWTYENIDYMKKQLKILGFSYDWDREIATCDPEYYKWNQWIFLKMLERGIAYRKTAKVNWCPHDQTVLANEQVIEGKCWRCGTPIVQKEVPSWFLRITAYADRLLEDLKKLEGKWPERVIAQQRNWIGRSEGALIRFYVEIEEPEKFLNCVPEELKETLLKEKRIYIDVFTTRPDTVFGATFVVLAPEHPLVPVLACIGERLGNACYSDVENFVEKMKKMSTRERTMEEDKEGVFLGVYATNPANGEKIPVWSANYVLYEYGTGAIMCVPAHDQRDWEFAKKYDLPIKVVVKPEGAWDFEKGAYEGKGTLVNSDGFDGLDSETAKRKITEWLQDRGLGEKKVSYRLRDWNISRQRYWGTPIPVVYCEKCGMVPVPEDQLPVKLPLDVKFTGQGNPLETSEEFVNTTCPKCGGKARRETDTMDTFFDSSWYFLRFCDPKNDREPFSREKVDYWMPVDVYIGGIEHAVLHLLYARFFQKFLKDLGLVRDDEPFEKLITQGMVLKKWVSVKKLLDYLGLSEEDEVEELKKRLEELGARRA	soluble
MFQLLAVCPMGLEAVVAKEIQELGYDTQVENGRIFFEGDESAIVRCNLWLRTADRIKIVMGRFNATTFDELFEQTKSLPWETVIDKEGNFPVQGRSVKSTLYSVPDCQAITKKAIVERLKHAHQEKGWLSETGAKYPVEVAILKDNVLLTIDTAGSGLNKRGYRIAQGEAPIKETLAASLIRLANWNGNTPLIDPFCGSGTIAIEACLIAQNIAPGFNRDFVSEQWNMMPPNIYDKFRDEADQLADYDKDIQVYASDIDPEMIEIAKRNAEEVGLGDIIQFNVKDVNTLSIDTDKPVALVGNPPYGERIGDREEVEEMYRYIGTLLKQHPHLSAYILTSNKEFEYLVNRKATKRRKLFNGYIECTYYQYWGKKQSNKN	not soluble
MKEFVHDYLAASVENEEEGGRMRWYPWHSAEYRFNHILNVVDIATKIARKEGANVDVTRVAALFHDIAKLEAEQDLHAEAGARIAREYLRAHGDYPESFIEQVCSAVEVHSYQGSLDDLPLEVQCLIEADILDKVGANGTALMLLRMGYESRTHMDAAEMVDRVIERGEDARERVQSDTAESLVHQRLKRTRWFQEWLTMEVAEMAVEDDLDDVATGMGDSLEHHHHHH	soluble
MIITEQNMPEEKLQTLSLQVINGSELESGRAARCLFTQQGNVGHAPECHWSVQDRQQSIPAQAFTVILHDGTFCLRPQTAQLWLNQAKVTATSDLIQLRQGDEIQIGRLMVRVHLNRGDIPHYDEEMATPETIVTNRDMLTDTLLSTEGAPHYPGMTHRHQLADTVVNGFSADPLQALQSESLITTGDPLSGIAAVRPSAPLSDPASNGGINTPFMDLPPIYASPGDHNDDISAAEMAQRHLAVTPLLRGLGGSLTVSNSDDADDFLEEAGRTLQAAIKGLLDLQQQRNSLSDKHLRPLEDNPLRLNMDYATALDVMFAEGKSPVHLAAPAAVSESLRNVRHHEEANRAAIVESLRVLLDAFSPQNLLRRFVQYRRSHELRQPLDDAGAWQMYSHYYEELASDRQQGFEMLFNEVYAQVYDRVLREKQREPEA	soluble
MFKEVGEPNFPKLEEEVLAFWKREKIFQKSVENRKGGPRYTVYEGPPTANGLPHVGHAQARSYKDLFPRYKTMRGYYAPRRAGWDTHGLPVELEVEKKLGLKSKREIEAYGIERFNQACRESVFTYEKEWEAFTERIAYWVDLENAYATLEPTYIESIWWSLKNLFDRGLLYRDHKVVPYCPRCGTPLSSHEVALGYKEIQDPSVYVRFPLKEPKKLGLEKASLLIWTTTPWTLPGNVAAAVHPEYTYAAFQVGDEALILEEGLGRKLLGEGTPVLKTFPGKALEGLPYTPPYPQALEKGYFVVLADYVSQEDGTGIVHQAPAFGAEDLETARVYGLPLLKTVDEEGKLLVEPFKGLYFREANRAILRDLRGRGLLFKEESYLHSYPHCWRCSTPLMYYATESWFIKNTLFKDELIRKNQEIHWVPPHIKEGRYGEWLKNLVDWALSRNRYWGTPLPIWVCQACGKEEAIGSFQELKARATKPLPEPFDPHRPYVDQVELACACGGTMRRVPYVIDVWYDSGAMPFASLHYPFEHEEVFRESFPADFIAEGIDQTRGWFNFLHQLGVMLFGSIAFKNVICHGLILYEMGQKMSKSKGNVVDPWDIIREFGADALRWYIYVSAPPEADRRFGPNLVRETVRDYFLTLWNVYSFFVTYANLDRPDLKNPPPPEKRPEMDRWLLARMQDLIQRVTEALEAYDPTTSARALRDFVVEDLSQWYVRRNRRRFWKNEDALDREAAYATLYEALVLVATLAAPFTPFLAEVLWQNLVRSVRPEAKESVHLADWPEADPALADEALVAQMRAVLKVVDLARAARAKSGVKTRTPLPLLLVTAPTALEREGLKRFAHEIAEELNVKEVRVLEPGEEILSYRVLPNLKLLGRKYGKLVPKIREALQRERERAAALALKGEAIPLEVEGEALTLLPEEVLLEAEAPKGYQALEKDGYVAALKVEVTEALRMEGLARDLIRLLQQARKDMGLKVSDRIRVGYEAEGPYLEALKRHGPWIAEEVLATAFGEGLFGGFEARVEDEEGKAVFHLARAE	soluble
MAHHHHHHMDGGGRVAGTGVQLKPATVHGSVECVEFDKLSGSSNLFALQTMPVYFGASRVPWRLLDVGVKERKPASESGSAGAAMWLALVRFPPRGACPMPAAMGGWGVR	not soluble
MADLPSISLITATYNAAQHLPGLIESVRQQSDRAFEWIVIDGASEDGTLDLIRGAQDVITDYVSEPDFGIFHALNKGIQRATGDYYLVVGADDRLDPLAIANYKQAAASSQADLISAYIYSEKKAIIKPTGGAIWHHGVQAFITTQSVGTLIKRNLHEHYGYYSHYYPTAADALFILKVQQGGGKITTAEFIAGQYNTKGFSYRYKANLLCELFLIQKEFFPKSIQLLLLIYRLIKNYRYLLEHHHHHH	not soluble
MVKTMKCKFCDKKSYIKLKSPKMYLCKEHFVEYFENKVKKSIDKYKMLSKDEKILVAVSGGKDGHAAAWVLKKLGYNIELFHINLGIEGFSEESLKAVKELAEKLEVPLHVVNLKDITGKTMEDIRGKKCSICGTTKRYLMNKFGYENGFDVIVTGHNLDDEVSFILNNLFNWNIRYLAKHEPVLPAHDKFLKKVKIFFEIEEELILKYAEAEEIPYTTVECKYAERAITLKHRAYLNELEKERPGIKYQFLSGYMKNRHLFKVEEEDFQFRECEVCGMTSAGKICSFCRVWKLYKKKKENRN	soluble
